Measurements taken from US11278600B2, “Human alpha-galactosidase variants” (Codexis, Inc., priority 2014, dated 2022).

Legend:
Assay type in all cases: biochemical
[1] = HTP-analysis of supernatants pretreated with acid (MUGal hydrolysis); settings: challenge at pH 4.3; activity of the variant/activity of WT GLA (SEQ ID NO: 5); yeast supernatant
Procedure: (§1) Yeast (INVSc1) cells transformed with vectors expressing GLA and GLA variants using the lithium acetate method were selected on SD-Ura agar plates. After 72 h incubation at 30° C. colonies were placed into the wells of Axygen® 1.1 ml 96-well deep well plates filled with 200 μl/well SD-Ura broth (2 g/L SD-Ura, 6.8 g/L yeast nitrogen base without amino acids [Sigma Aldrich]), 3.06 g/L sodium dihydrogen phosphate, 0.804 g/L disodium hydrogen phosphate, pH 6.0 supplemented with 6% glucose. The cells were allowed to grow for 20-24 hours in a Kuhner shaker (250 rpm, 30° C., and 85% relative humidity). Overnight culture samples (20 μL) were transferred into Corning Costar® 96-well deep plates filled with 380 µL of SD-ura broth supplemented with 2% glucose. The plates were incubated for 66-84 h in a Kuhner shaker (250 rpm, 30° C., and 85% relative humidity). The cells were then pelleted (4000 rpm×20 min), and the supernatants isolated and stored at 4° C. prior to analysis.
GLA variants were challenged with acidic buffer to simulate the extreme pHs that the variants may encounter in lysosomes. First, 50 μL of yeast culture supernatant and 50 uL of McIlvaine buffer (pH 3.3-4.3) were added to the wells of a 96-well round bottom plate. The plates were sealed with a PlateLoc Thermal Microplate Sealer (Agilent) and incubated at 37° C. for 1-3 h. For the assay, 10-50 uL of acid-pH-challenged sample was mixed with 0-40 μL, of McIlvaine buffer pH 4.8, 25 μL, of 1 M citrate buffer pH 4.3 and 25 μL, of 4 mM MUGal in McIlvaine buffer pH 4.8. The reactions were mixed briefly and incubated at 37° C. for 30-180 minutes, prior to quenching with 100 μL, of 1 M sodium carbonate. Hydrolysis was analyzed using a SpectraMax® M2 microplate reader monitoring fluorescence (Ex. 355 nm, Em. 448 nm).

[2] = HTP-analysis of supernatants pretreated with base (MUGal hydrolysis); settings: challenge at pH 7.0; activity of the variant/activity of WT GLA (SEQ ID NO: 5); yeast supernatant
Procedure: as §1
GLA variants were challenged with basic (neutral) buffer to simulate the pHs that the variants encounter in the blood following their administration to a patient. First, 50 μL of yeast culture supernatant and 50 uL of McIlvaine buffer (pH 7.0-8.2) or 200 mM sodium bicarbonate (pH 9.1-9.7) were added to the wells of a 96-well round bottom plate. The plates were sealed and incubated at 37° C. for 1-18 h. For the assay, 10-50 μL of basic-pH-challenged sample was mixed with 0-40 μL, of McIlvaine buffer pH 4.8, 25 μL, of 1 M citrate buffer pH 4.3 and 25 μL, of 4 mM MUGal in McIlvaine buffer pH 4.8. The reactions were mixed briefly and incubated at 37° C. for 30-180 minutes, prior to quenching with 100 μL, of 1 M sodium carbonate. Hydrolysis was analyzed using a SpectraMax® M2 microplate reader monitoring fluorescence (Ex. 355 nm, Em. 448 nm).

[3] = HTP-analysis of yeast culture supernatants, no challenge (MUGal hydrolysis); settings: activity of the variant/activity of WT GLA (SEQ ID NO: 5), yeast supernatant
Procedure: as §1
GLA variant activity was determined by measuring the hydrolysis of 4-methylumbelliferyl α-D-galactopyranoside (MUGal). For this assay, 5-50 μL, of yeast culture supernatant produced as described above, was mixed with 0-45 μL, of McIlvaine Buffer (McIlvaine, J. Biol. Chem., 49:183-186 [1921]), pH 4.8 and 50 μL of 2 mM MUGal in 50 mM citrate, 200 mM KCl, pH 4.6 in a 96-well, black, opaque bottom plate. The reactions were mixed briefly and incubated at 37° C. for 30-180 minutes, prior to quenching with 100 μL, of 1 M sodium carbonate. Hydrolysis was analyzed using a SpectraMax® M2 microplate reader monitoring fluorescence (Ex. 355 nm, Em. 448 nm).

Row | Molecule | Relative Activity of GLA Variants After Challenge at pH 4.3 [1] | Relative Activity of GLA Variants After Challenge at pH 7.0 [2] | Relative Activity of GLA Variants After No Challenge (NC) [3]
1 | 22 (protein, Synthetic Polypeptide sequence of Variant No. 22 of mature Human GLA) LDNGLARTPTMGWLHWERFMCNLDCQEEPDSCISEKLFMEMAELMVSEGWKDAGYEYLCIDDCWMAPQRDSEGRLQADPQRFPHGIRQLANYVHSKGLKLGIYADVGNKTCAGFPGSFGYYDIDAQTFADWGVDLLKFDGCYCDSLENLADGYKHMSLALNRTGRSIVYSCEWPLYMWPFQKPNYTEIRQYCNHWRNFADIDDSWKSVKSILDWTSFNQERIVDVAGPGGWNDPDMLVIGNFGLSWNQQVTQMALWAIMAAPLFMSNDLRHISPQAKALLQDKDVIAINQDPLGKQGYRLRQGDNFEVWERPLSGLAWAVAMINRQEIGGPRSYTIAVASLGKGVACNPACFITQLLPVKRKLGFYEWTSRLRSHVNPTGTVLLQLENTMQMSLKDLLL | + (+ = 0.5 to 1.5 relative activity over WT GLA (SEQ ID NO: 5)) | + (+ = 0.5 to 1.5 relative activity over WT GLA (SEQ ID NO: 5)) | + (+ = 0.5 to 1.5 relative activity over WT GLA (SEQ ID NO: 5))
2 | 24 (protein, Synthetic Polypeptide sequence of Variant No. 24 of mature Human GLA) LDNGLARTPTMGWLHWERFMCNLDCQEEPDSCISEKLFMEMAELMVSEGWKDAGYEYLCIDDCWMAPQRDSEGRLQADPQRFPHGIRQLANYVHSKGLKLGIYADVGNKTCAGFPGSFGYYDIDAQTFADWGVDLLKFDGCYCDSLENLADGYKHMSLALNRTGRSIVYSCEWPLYMWPFQKPNYTEIRQYCNHWRNFADIDDSWKSIKSILDWTSFNQERIVDVAGPGGWNDPDMLVIGNFGLSWNQQVTQMALWAIMAAPLFMSNDLRHISPQAKALLQDKDVIAINQDPLGKQGYQLRQGDNFEVWERPLSGLAWAVAMINRQEIGGPRSYTIAVASLGKGVACNPACFITQLLPVKRKLGFYEWTSRLRSHVNPTGTVLLQLENTMQMSLKDLLL | ++ (++ = >1.5 to 2.5 relative activity over WT GLA (SEQ ID NO: 5)) | + (+ = 0.5 to 1.5 relative activity over WT GLA (SEQ ID NO: 5)) | + (+ = 0.5 to 1.5 relative activity over WT GLA (SEQ ID NO: 5))
3 | 25 (protein, Synthetic Polypeptide sequence of Variant No. 25 of mature Human GLA) LDNGLARTPTMGWLHWERFMCNLDCQEEPDSCISEQLFMEMAELMVSEGWKDAGYEYLCIDDCWMAPQRDSEGRLQADPQRFPHGIRQLANYVHSKGLKLGIYADVGNKTCAGFPGSFGYYDIDAQTFADWGVDLLKFDGCYCDSLENLADGYKHMSLALNRTGRSIVYSCEWPLYMWPFQKPNYTEIRQYCNHWRNFADIDDSWKSIKSILDWTSFNQERIVDVAGPGGWNDPDMLVIGNFGLSWNQQVTQMALWAIMAAPLFMSNDLRHISPQAKALLQDKDVIAINQDPLGKQGYQLRQGDNFEVWERPLSGLAWAVAMINRQEIGGPRSYTIAVASLGKGVACNPACFITQLLPVKRKLGFYEWTSRLRSHINPTGTVLLQLENTMQMSLKDLLL | + (+ = 0.5 to 1.5 relative activity over WT GLA (SEQ ID NO: 5)) | + (+ = 0.5 to 1.5 relative activity over WT GLA (SEQ ID NO: 5)) | + (+ = 0.5 to 1.5 relative activity over WT GLA (SEQ ID NO: 5))
4 | 26 (protein, Synthetic Polypeptide sequence of Variant No. 26 of mature Human GLA) LDNGLARTPTMGWLHWERFMCNLDCQEEPDSCISEKLFMEMAELMVSEGWKDAGYEYLCIDDCWMAPQRDSEGRLQADPQRFPHGIRQLANYVHSKGLKLGIYADVGNKTCAGFPGSFGYYDIDAQTFADWGVDLLKFDGCYCDSLENLADGYKHMSLALNRTGRSIVYSCEWPLYMWSFQKPNYTEIRQYCNHWRNFADIDDSWKSIKSILDWTSFNQERIVDVAGPGGWNDPDMLVIGNFGLSWNQQVTQMALWAIMAAPLFMSNDLRHISPQAKALLQDKDVIAINQDPLGKQGYQLRQGDNFEVWERPLSGLAWAVAMINRQEIGGPRSYTIAVASLGKGVACNPACFITQLLPVKRKLGFYEWTSRLKSHINPTGTVLLQLENTMQMSLKDLLL | + (+ = 0.5 to 1.5 relative activity over WT GLA (SEQ ID NO: 5)) | + (+ = 0.5 to 1.5 relative activity over WT GLA (SEQ ID NO: 5)) | + (+ = 0.5 to 1.5 relative activity over WT GLA (SEQ ID NO: 5))
5 | 23 (protein, Synthetic Polypeptide sequence of Variant No. 23 of mature Human GLA) LDNGLARTPTMGWLHWERFMCNLDCQEEPDSCISEKLFMEMAELMVSEGWKDAGYEYLCIDDCWMAPQRDSEGRLQADPQRFPHGIRQLANYVHSKGLKLGIYADVGNKTCAGFPGSFGYYDIDAQTFADWGVDLLKFDGCYCDSLENLADGYKHMSLALNRTGRSIVYSCEWPLYMWPFQKPNYTEIRQYCNHWRNFADIDDSWKSVKSILDWTSFNQERIVDVAGPGGWNDPDMLVIGNFGLSWNQQVTQMALWAIMAAPLFMSNDLRHISPQAKALLQDKDVIAINQDPLGKQGYQLRKGDNFEVWERPLSGLAWAVAMINRQEIGGPRSYTIAVASLGKGVACNPACFITQLLPVKRKLGFYEWTSRLKSHVNPTGTVLLQLENTMQMSLKDLLL | +++ (+++ = >2.5 relative activity over WT GLA (SEQ ID NO: 5)) | ++ (++ = >1.5 to 2.5 relative activity over WT GLA (SEQ ID NO: 5)) | + (+ = 0.5 to 1.5 relative activity over WT GLA (SEQ ID NO: 5))
6 | 27 (protein, Synthetic Polypeptide sequence of Variant No. 27 of mature Human GLA) LDNGLARTPTMGWLHWERFMCNLDCQEEPDSCISEKLFMEMAELMVSEGWKDAGYEYLCIDDCWMAPQRDSEGRLQADPQRFPHGIRQLANYVHSKGLKLGIYADVGNKTCAGFPGSFGYYDIDAQTFADWGVDLLKFDGCYCDSLENLADGYKHMSLALNRTGRSIVYSCEWPLYMWPFQKPNYTEIRQYCNHWRNFADIDDSWKSIKSILDWTSFNQERIVDVAGPGGWNDPDMLVIGNFGLSWNQQVTQMALWAIMAAPLFMSNDLRHISPQAKALLQDKDVIAINQDPLGKQGYRLRQGDNFEVWERPLSGLAWAVAVINRQEIGGPRSYTIAVASLGKGVACNPACFITQLLPVKRKLGFYEWTSRLKSHINPTGTVLLQLENTMQMSLKDLLL | + (+ = 0.5 to 1.5 relative activity over WT GLA (SEQ ID NO: 5)) | + (+ = 0.5 to 1.5 relative activity over WT GLA (SEQ ID NO: 5)) | + (+ = 0.5 to 1.5 relative activity over WT GLA (SEQ ID NO: 5))
